Laboratory results taken from publication PMC8230527, “Structural and Biochemical Characterization of a Dye-Decolorizing Peroxidase from Dictyostelium discoideum” (International Journal of Molecular Sciences, 2021).

How the values were obtained:
[1] = molecular target: Dictyostelium discoideum dye-decolorizing peroxidase DyPA (Dictyostelium discoideum); test: AUC; sedimentation velocity, 50,000 rpm, 20 °C, 50 mM Tris-HCl pH 8.0, 150 mM NaCl; 20 µM apo-DyPA with a heme saturation of only 7%
[2] = molecular target: Dictyostelium discoideum dye-decolorizing peroxidase DyPA (Dictyostelium discoideum); test: AUC; sedimentation velocity, 50,000 rpm, 20 °C, 50 mM Tris-HCl pH 8.0, 150 mM NaCl; heme-reconstituted DyPA at 2.1, 6.3, 18.9 and 33.6 µM (monomer concentrations); dimer, no monomer-dimer equilibrium seen in this range

- stoichiometry N [1]: 2
- percent of the protein sedimenting as the dimer species [2]: 90%
- stoichiometry N [2]: 2
Substance: Dictyostelium discoideum dye-decolorizing peroxidase DyPA (enzyme)
